Test results published in paper PMC12256440.

Biological target: MSC membrane glycoproteins (plasminogen membrane receptors) (human (endogenous in MSCs))

## Glu-plasminogen (natural protein)
  Michaelis-Menten constant of plasmin formation on scuPA-treated MSCs, plasminogen 0-2 μM, chromogenic substrate CBS0065: 0.5 µM
